Assay [1] addresses biotinylated human CD40 (human) (UniProt P25942). As to the kind of experiment: SPR, BIAcore 3000 COINJECT over biotinylated human CD40; mixture after first injection; competitor BMS3h-193-12. (Surface plasmon resonance follows binding to a sensor surface in real time, without labels.)
Assay [2] has the same target. As to the kind of experiment: SPR, BIAcore 3000 COINJECT over biotinylated human CD40; mixture after first injection; competitor BMS3h-56-5.
For assay [3] the target is unchanged. As to the kind of experiment: SPR, BIAcore 3000 COINJECT over biotinylated human CD40; mixture after first injection; competitor G28-5 Fab.
Assay [4] shares this target. As to the kind of experiment: SPR, BIAcore 3000, Fab injected alone over biotinylated human CD40 on SA chip.
Assay [5] shares this target. As to the kind of experiment: SPR, BIAcore 3000, 1 µM Fab alone over biotinylated human CD40.
Assay [6] shares this target. As to the kind of experiment: SPR, BIAcore 3000 COINJECT over biotinylated human CD40; mixture after first injection; competitor Chi220 Fab.

Chain of biotinylated human CD40 (human) (P25942 21-193 limits assumed): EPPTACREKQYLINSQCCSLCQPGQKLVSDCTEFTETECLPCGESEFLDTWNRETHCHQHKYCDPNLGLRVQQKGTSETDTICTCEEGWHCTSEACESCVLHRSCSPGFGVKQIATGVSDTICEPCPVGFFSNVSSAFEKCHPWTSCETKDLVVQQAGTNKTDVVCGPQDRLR

Chi220 Fab': the Second Injection (% of single dAb/Fab RU) in assay [1] came out at 98%; in assay [2], 98%; in assay [3], 39%. In assay [4], this substance returned an RU first dAb/Fab alone of 1090 RU.
As for G28-5 Fab', the Second Injection (% of single dAb/Fab RU) was 93% in assay [1], 94% in assay [2] and 11% in assay [6]. The substance further gave an RU first dAb/Fab alone in assay [4] of 730 RU. This substance gave a Single dAb RU in assay [5] of 730 RU.

(Values after patent publication US20200199244A1.)
